How the values were obtained:
[1] = target: hMor1-34GS-Nb10 (human); test: radioligand competition against [3H]-diprenorphine on Sf9 membranes
[2] = target: hMor1-34GS-Nb33 (human); test: as above
[3] = target: hMor1-34GS-Nb33 (human); test: ratio of the IC50s on hMor1-34GS-Nb10 (reference) and hMor1-34GS-Nb33 membranes, [3H]-diprenorphine competition

| Substance | IC50 [1] [nM] | IC50 [2] [nM] | IC50Nb10/IC50Nb33 [3] |
| --- | --- | --- | --- |
| KGOP01 (peptide) | 76.7 | 3.8 | 20 |
| Dmt1-Dalda (peptide) | 655 | 18 |  |

Source: US20150376261A1
